The DeepSol protein solubility set

Test: soluble on expression in E. coli; label from the status in PepcDB or PDB records
For “MLYKRKNIKFKNFVDLHKNLSLSKLFDFYSVFEGFEKLNILNFEDDVFTNIERILLDDYLKIKSYFALDETSSYALTLLAKNNRKRFSINRKIQHFKALSTLKYLLETGIIKLEYSKEAKKIKDKRQKIKKELRSYVVQDKIIFSNHFTRFFFYFLKPNEKLILQNRYKEVLECIKEKFELYQSFCFEQLSRELLEKKFNINGVQSYWDKNLELDLYYQDENLCFVGEVKFKNKKICKNILNLLKSKAKSLNLAPNYYIIISKNGFSKEIDKICEQNLLLLDLNDFKILLEELEHHHHHH”, the “soluble on expression in E. coli” value was “not soluble”.
With “MMAKDFYSAIEDRRSIYAISKEQVVSDEKIQEVIYHAVKHTPSAFNSQSARVVVLLGEQHDKLWDITKETLRKIVPENNFAPTEEKMNAFKSGYGTVLYFEDSEVVESLQANFALYKDNFPTWSQQSSGMLQFAIWTALEIEGFGATLQHYNPLIDEEVRKEWDVPANWKLIAQMPFGKPVVQAGEKEFQPLENRVKIYK” the “soluble on expression in E. coli” value was “not soluble”.
For “MMAKLVVCIIDGMADPPPPAGGVTPLAAAHTPHCDTLARHSVAGLCHVIQPEAVPGSEAGLSALLCCEAAASIARGPVEALAQGDPVAPHETVWRLNLVSLGPRGNYYNPAPLLDAATETAARKMLDRALGTQGYSLLGGKGFRHLCAGTEPPVLRDGPQDVCGMTPDTGQADLNSYCPRLARAMTEANVLFRRSRMDLAVWPWGAGTMPDLPGFAETTGQTGALAGGVPLARGLALALGMTAPSIAGATGGIDTDLGAKTRAAIALAAGHDVVYLHVEAPDLHAHALDRVAKRRAIERIDAEVVGPLHMALPDATLLITCDHATDCATGRHMAIPVPFILHKPDGPQDGIATFSEAASARTGIRIDSAATLVRLALADLEHHHHHH”, the “soluble on expression in E. coli” value was “soluble”.
With “MMARVEKLRELMKENNLQGFLVTSPYNLRYLTNFTGTTGLAMITLDKAFFVTDFRYTEQAAEQATGFTIVKNTGHIFDEVADLAERLQLDNLAFEETQVSFADYSLLEEILPCELVPVMGLIEELREVKDEEEVAIIEKACAIADQGFAFVLEMIKPGMTEIEVANQLDFFMRSKGASGVSFETIVASGLRSAMPHGVASHKVIEKGELITLDFGCYYEGYVSDMTRTFAIGSIQPKLKEIYDIVLEAQLKVLAEAKPGLTGIQLDAIARDHIASYGYGDAFGHSTGHGIGLEIHEGPNVSFRADKQFVPGNVITDEPGIYLPGIGGVRIEDDLLITAEGNRVLTHAPKELIIL” the “soluble on expression in E. coli” value was “not soluble”.
In the case of “MMAYSDTTMMSDDIDWLRSHRGVCKVDLYNPEGQQDQDRKVICFVDVSTLNVEDKDYKDAASSSSEGNLNLGSLEEKEIIVIKDTEKKDQSKTEGSVCLFKQAPSDPVSVLNWLLSDLQKYALGFQHALSPSTSTCKHKVGDTEGEYHRASSENCYSVYADQVNIDYLMNRPQNLRLEMTAAKNTNNNQSPSAPPAKPPSTQRAVISPDGECSIDDLSFYVNRLSSLVIQMAHKEIKEKLEGKSKCLHHSICPSPGNKERISPRTPASKIASEMAYEAVELTAAEMRGTGEESREGGQKSFLYSELSNKSKSGDKQMSQRESKEFADSISKGLMVYANQVASDMMVSLMKTLKVHSSGKPIPASVVLKRVLLRHTKEIVSDLIDSCMKNLHNITGVLMTDSDFVSAVKRNLFNQWKQNATDIMEAMLKRLVSALIGEEKETKSQSLSYASLKAGSHDPKCRNQSLEFSTMKAEMKERDKGKMKSDPCKSLTSAEKVGEHILKEGLTIWNQKQGNSCKVATKACSNKDEKGEKINASTDSLAKDLIVSALKLIQYHLTQQTKGKDTCEEDCPGSTMGYMAQSTQYEKCGGGQSAKALSVKQLESHRAPGPSTCQKENQHLDSQKMDMSNIVLMLIQKLLNENPFKCEDPCEGENKCSEPRASKAASMSNRSDKAEEQCQEHQELDCTSGMKQANGQFIDKLVESVMKLCLIMAKYSNDGAALAELEEQAASANKPNFRGTRCIHSGAMPQNYQDSLGHEVIVNNQCSTNSLQKQLQAVLQWIAASQFNVPMLYFMGDKDGQLEKLPQVSAKAAEKGYSVGGLLQEVMKFAKERQPDEAVGKVARKQLLDWLLANL”, the “soluble on expression in E. coli” value was “not soluble”.
With “MMEDVGKEMSKIIQKRDINERYEELVNEVLKDQDVQAFIQANRERLTDEDIRKSYAKLYEFVQEKKKFQVNDPAMIAPGYEPRLMLNFHYIDVTYVPTADLIARQKEEEIRNRVRAMDMPKDVREANLRDFDPSSQGRAKALAEAMQFLREYPATPKEFHKGLYLQGPFGVGKSFLLGAMANALAERGFTTTIVHFPTFTVEMKQAIGRDQVGEKLDAVKKSPILMIDDIGAESMTSWIRDDVLSVILQYRMQEQLVTFFSSNLDLKALEEHLTVTQRGEQEPLKARRIMERVRYLSKEITMTGNDRRNG” the “soluble on expression in E. coli” value was “not soluble”.
With “MMEKNNEVIQTHPLVGWDISTVDSYDALMLRLHYQTPNKSEQEGTEVGQTLWLTTDVARQFISILEAGIAKIESGDFPVNEYRRH” the “soluble on expression in E. coli” value was “not soluble”.
In the case of “MMEMITIKPGKITVQANPNMPKEVAELFRKQHYEIVGRHSGVKLCHWLKKSLTEGRFCYKQKFYGIHSHRCLQMTPVLAWCTHNCIFCWRPMENFLGTELPQPWDDPAFIVEESIKAQRKLLIGYKGNPKVDKKKFEEAWNPTHAAISLSGEPMLYPYMGDLVEEFHKRGFTTFIVTNGTIPERLEEMIKEDKLPTQLYVSITAPDIETYNSVNIPMIPDGWERILRFLELMRDLPTRTVVRLTLVKGENMHSPEKYAKLILKARPMFVEAKAYMFVGYSRNRLTINNMPSHQDIREFAEALVKHLPGYHIEDEYEPSRVVLIMRDDVDPQGTGVEGRFIKH”, the “soluble on expression in E. coli” value was “soluble”.
In the case of “MMEMLVDQGTDASSSASTSTSSVSRFGADTFMNTPDDVMMNDDMEPIPRDRCNTWPMRRPQLEPPLNSSPIIHEQIPEEDADLYGSNEQCGQLGGASSNGSTAMLHTPDGSNSHQTSFPSDFRMSESPDDTVSGKKTTTRRNAWGNMSYAELITTAIMASPEKRLTLAQVYEWMVQNVPYFRDKGDSNSSAGWKNSIRHNLSLHSRFMRIQNEGAGKSSWWVINPDAKPGRNPRRTRERSNTIETTTKAQLEKSRRGAKKRIKERALMGSLHSTLNGNSIAGSIQTISHDLYDDDSMQGAFDNVPSSFRPRTQSNLSIPGSSSRVSPAIGSDIYDDLEFPSWVGESVPAIPSDIVDRTDQMRIDATTHIGGVQIKQESKPIKTEPIAPPPSYHELNSVRGSCAQNPLLRNPIVPSTNFKPMPLPGAYGNYQNGGITPINWLSTSNSSPLPGIQSCGIVAAQHTVASSSALPIDLENLTLPDQPLMDTMDVDALIRHELSQAGGQHIHFDL”, the “soluble on expression in E. coli” value was “not soluble”.
With “MMFDRRFFALVVLLCVSAVRSTEDASDDELNYEMDEGVVVLTDKNFDAFLKKNPSVLVKFYAPWCGHCKHLAPEYEKASSKVSIPLAKVDATVETELGKRFEIQGYPTLKFWKDGKGPNDYDGGRDEAGIVEWVESRVDPNYKPPPEEVVTLTTENFDDFISNNELVLVEFYAPWCGHCKKLAPEYEKAAQKLKAQGSKVKLGKVDATIEKDLGTKYGVSGYPTMKIIRNGRRFDYNGPREAAGIIKYMTDQSKPAAKKLPKLKDVERFMSKDDVTIIGFFATEDSTAFEAFSDSAEMLREEFKTMGHTSDPAAFKKWDAKPNDIIIFYPSLFHSKFEPKSRTYNKAAATSEDLLAFFREHSAPLVGKMTKKNAATRYTKKPLVVVYYNADFSVQYREGSEYWRSKVLNIAQKYQKDKYKFAVADEEEFAKELEELGLGDSGLEHNVVVFGYDGKKYPMNPDEFDGELDENLEAFMKQISSGKAKAHVKSAPAPKDDKGPVKTVVGSNFDKIVNDESKDVLIEFYAPWCGHCKSFESKYVELAQALKKTQPNVVLAKMDATINDAPSQFAVEGFPTIYFAPAGKKSEPIKYSGNRDLEDLKKFMTKHGVKSFQKKDEL” the “soluble on expression in E. coli” value was “not soluble”.
With “MMFWDSEVAKRLLAQGALRPLDVQFARFIGKQAVLAGHNAAESELLSVLSAALSAELGRGHICLPLCDAQGNRCDLAALIGLYGEASLQHSERWLAVDWQALLQASPLVGQQGEAVPLMFDGSRLYLHRYWHYEKQLAARLTELAAPQRLSPAELANLRERLNTLFARDYLGLWQALQQKPLSSVERIQLLNDRLDVVESDALDWPAIEAVVEKAQRAADLQALEQLIPLTHCLNWQKVAAAVALTRRFAVISGGPGTGKTTTVTKLLAALISQSMAQGKVPEIKLIAPTGKAAARLTESMGKAVSQLAIEPEIAAAIPSSSSTIHRLLGAIPGSAEFRHHTRNPLHLDLLVVDEASMVDLPLMVKLVEALPKHARLILLGDKDQLASVEAGAVLGDICTFLNQGYGHEQGAQLAELTGFATLRQTASKTVNPVADCLCMLQKSYRFDARSGIGQLAKAINSGSPARVEAVWQQSFSDIEHFALSGEHYQQLLQTLVQAYRPYLSLLNQPTEQFESTQQSMLTLAKSALDAFSRCRLLCALREGDFGVMGLNTRIERALNAHKLIKTQEEIWYHGRPIMVTRNDHGLGLYNGDIGLCMRDRDDDQGRLKVYFELPDGSIKAVLPSRVPQHETAYAMTIHKSQGSEFDLTLLILPPDYSPILTRELVYTGITRAKKQLKLYCDNKVLQRAIKVKTQRASGLVARLEQ” the “soluble on expression in E. coli” value was “not soluble”.
With “MMGDSVIYYVEQADEPVNRADERARKTFKYFWRELFWERRRIISALDFAMVKVPFFQDGEDGEICEHMWIDDIYFDGLYIYGVLNNEPGELTNVEQGESVCVPVDDISDWMFVCNGIPYGGFTIQAMRGQMTEEERTEHDAAWGIDFGDPGQILLVYEEKEHPENLEE” the “soluble on expression in E. coli” value was “not soluble”.
In the case of “MMIIGINGSPRKNGNTIEMLKSALDGAKAQGAETELINLYDYNYKGCVSCFSCKLKGGRSYGKCALKDDLKPILEKIEKADAFILASPIYFGMVTGEMRSFMERLLFQYLVYDKDHSSLFNRKIKTGFIYTMNVPETYLDSVGYNKLFESNEATLKRIFGASEYILSTDTYQFDDYSKYEASMFDVEAKKKRREEVFPEDCKRAYEMGASFVKLEHHHHHH”, the “soluble on expression in E. coli” value was “not soluble”.
For “MMIVIKTAIPDVLILEPKVFGDERGFFFESYNQQTFEELIGRKVTFVQDNHSKSKKNVLRGLHFQRGENAQGKLVRCAVGEVFDVAVDIRKESPTFGQWVGVNLSAENKRQLWIPEGFAHGFVTLSEYAEFLYKATNYYSPSSEGSILWNDEAIGIEWPFSQLPELSAKDAAAPLLDQALLTE”, the “soluble on expression in E. coli” value was “soluble”.
For “MMKAIPVEQAVGTVLCHDLTRIVPGEHKGRAFRKGHIVTEADIPLLLSIGKEHLYVLNLEAHQLHEDEAALRIATAAAGPGISLSEVSEGRINFMASPGLLCVDVEALNAINAIDEVALATMHSGQFIAARRAVAGTRVVPLVIDESKIRQVERICAASYPVVQVKPLRSHSIGVVTTGSEIFHGRIKDKFGPVMRDKFAALGSSVMGQRLVGDAPEATRDAILSFIGEGADMVVVTGGMSVDPDDQTPASIRATGAEVVTYGSPTFPGVMFMLAYLNDIPVLGLPGCVMYYRASIFDLVVPRLLAGERLARRDITSLGHGGFCAGCETCHHPVCPFGKLEHHHHHH”, the “soluble on expression in E. coli” value was “not soluble”.
With “MMKPVLHFSKLYEVKKLLRKSRLYTVCEESRCPNISECFGNKTATFMILGNRCTRRCAFCNVEKGFPKGVDPEEPYRLLEAVKTLGLKYVVITSVTRDDLPDGGASHFAKCIRVLKENIEDIKVEVLIPDFRGNKKALEVVLKEKPVVLNHNVETVPRLYPSVRIGANYKRSLNILKWSKEIDKSVYTKSALILGFGERKEEVIKVMEDLRSVDCDFLVLGQYYQPSLKHHPVVKYYSEEEFKEFEEIGYEMGFKFVVSKPNARSSYKAFESLLSTLEHHHHHH” the “soluble on expression in E. coli” value was “not soluble”.
With “MMNDGKQQSTFLFHDYETFGTHPALDRPAQFAAIRTDSEFNVIGEPEVFYCKPADDYLPQPGAVLITGITPQEARAKGENEAAFAARIHSLFTVPKTCILGYNNVRFDDEVTRNIFYRNFYDPYAWSWQHDNSRWDLLDVMRACYALRPEGINWPENDDGLPSFRLEHLTKANGIEHSNAHDAMADVYATIAMAKLVKTRQPRLFDYLFTHRNKHKLMALIDVPQMKPLVHVSGMFGAWRGNTSWVAPLAWHPENRNAVIMVDLAGDISPLLELDSDTLRERLYTAKTDLGDNAAVPVKLVHINKCPVLAQANTLRPEDADRLGINRQHCLDNLKILRENPQVREKVVAIFAEAEPFTPSDNVDAQLYNGFFSDADRAAMKIVLETEPRNLPALDITFVDKRIEKLLFNYRARNFPGTLDYAEQQRWLEHRRQVFTPEFLQGYADELQMLVQQYADDKEKVALLKALWQYADEIVEHHHHHH” the “soluble on expression in E. coli” value was “soluble”.
